Test results: the Immune Epitope Database (IEDB)
Blank lines part the entries; values can stand above or below the sequence they belong to.

Experiments:
HLA-B*53:01 = assay: IEDB peptide-MHC binding, purified MHC/competitive/radioactivity; filed as Kd, often an IC50 or EC50 that approximates it; ≥ and ≤ were set here for values at or beyond the usual limits of such assays
HLA-B*35:01 = assay: as above
HLA-B*54:01 = assay: as above
HLA-B*07:02 [1] = assay: as above
HLA-B*51:01 = assay: as above
HLA-A*02:17 = assay: as above
HLA-A*02:01 [2] = assay: as above
HLA-A*02:03 = assay: as above
HLA-A*01:01 [3] = assay: as above; settings: source organism: Dengue virus 2 Jamaica/1409/1983
HLA-A*68:02 = assay: as above
HLA-A*02:06 = assay: as above
HLA-B*08:01 = assay: IEDB peptide-MHC binding, purified MHC/direct/fluorescence; filed as Kd, often an IC50 or EC50 that approximates it; ≥ and ≤ were set here for values at or beyond the usual limits of such assays; settings: source organism: Escherichia coli O157:H7
HLA-A*26:01 = assay: as above; settings: source organism: Escherichia coli O157:H7
HLA-B*40:01 = assay: as above; settings: source organism: Escherichia coli O157:H7
HLA-A*11:01 = assay: as above; settings: source organism: Escherichia coli O157:H7
HLA-B*44:02 = assay: as above; settings: source organism: Escherichia coli O157:H7
HLA-A*01:01 [4] = assay: as above; settings: source organism: Escherichia coli O157:H7
HLA-B*27:05 = assay: as above; settings: source organism: Escherichia coli O157:H7
HLA-B*46:01 = assay: as above; settings: source organism: Escherichia coli O157:H7
HLA-A*03:01 = assay: as above; settings: source organism: Escherichia coli O157:H7
HLA-A*02:01 [5] = assay: as above
HLA-B*58:01 = assay: as above; settings: source organism: Escherichia coli O157:H7
HLA-B*15:01 = assay: as above
HLA-A*31:01 = assay: as above; settings: source organism: Escherichia coli
HLA-A*69:01 = assay: as above
HLA-B*07:02 [6] = assay: as above; settings: source organism: Escherichia coli O157:H7
HLA-A*02:12 = assay: as above; settings: source organism: Rift Valley fever virus
[7] = source organism: SARS coronavirus Tor2
[8] = source organism: Mammarenavirus lassaense
[9] = source organism: Dengue virus 3 China/80-2/1980
[10] = source organism: Dengue virus 2 Puerto Rico/PR159-S1/1969
[11] = source organism: Dengue virus 2 Jamaica/1409/1983
[12] = source organism: Dengue virus 3 Martinique/1243/1999
[13] = source organism: Dengue virus 3 Sri Lanka/1266/2000
[14] = source organism: Escherichia coli O157:H7
[15] = source organism: Dengue virus 4 Philippines/H241/1956
[16] = source organism: Dengue virus 1 Brazil/97-11/1997
[17] = source organism: Dengue virus 1 Singapore/S275/1990
[18] = source organism: Rift Valley fever virus

Sequence: SPLFLIVAAL
Kd (HLA-B*53:01; [7]): 1040 nM
Kd (HLA-B*35:01; [7]): 3330 nM
Kd (HLA-B*54:01; [7]): 949 nM
Kd (HLA-B*07:02 [1]; [7]): 248 nM
Kd (HLA-B*51:01; [7]): 970 nM

Sequence: CPFLFLIVL
Kd (HLA-B*53:01; [8]): 14100 nM
Kd (HLA-B*35:01; [8]): 414 nM
Kd (HLA-B*54:01; [8]): 1520 nM
Kd (HLA-B*07:02 [1]; [8]): ≥ 77400 nM
Kd (HLA-B*51:01; [8]): ≥ 54700 nM

Sequence: YLEFEALGFL
Kd (HLA-A*02:17; [9]): 45.3 nM
Kd (HLA-A*02:01 [2]; [9]): 77.1 nM

Sequence: TLYAVATTFI
Kd (HLA-A*02:03; source organism: Dengue virus 2 Peru/IQT2913/1996): 13.7 nM
Kd (HLA-A*02:17; [10]): 1300 nM
Kd (HLA-A*02:01 [2]; [10]): 86.3 nM

Sequence: LTAALLLLV
Kd (HLA-A*01:01 [3]): ≥ 42900 nM
Kd (HLA-A*02:17; [11]): ≥ 41700 nM
Kd (HLA-A*68:02; [11]): 5.36 nM
Kd (HLA-A*02:01 [2]; [11]): 5760 nM
Kd (HLA-A*02:06; [11]): 3.73 nM

Sequence: TAAAWYLWEV
Kd (HLA-A*02:17; [11]): 1020 nM
Kd (HLA-A*68:02; [11]): 4.09 nM
Kd (HLA-A*02:01 [2]; [11]): 10.3 nM
Kd (HLA-A*02:06; [11]): 1.28 nM

Sequence: APNAKEEIL
Kd (HLA-B*53:01; [7]): 18500 nM
Kd (HLA-B*35:01; [7]): 19200 nM
Kd (HLA-B*54:01; [7]): ≥ 23300 nM
Kd (HLA-B*07:02 [1]; [7]): 71.2 nM
Kd (HLA-B*51:01; [7]): 2650 nM

Sequence: LLLLTLLATV
Kd (HLA-A*02:03; [11]): 1.37 nM
Kd (HLA-A*02:17; [11]): 54.4 nM
Kd (HLA-A*02:01 [2]; [11]): 64.6 nM
Kd (HLA-A*02:06; [11]): 23.8 nM

Sequence: VILAGPMPV
Kd (HLA-A*02:17; [11]): 1360 nM

Sequence: MIAGVFFTFV
Kd (HLA-A*02:03; [12]): ≤ 0.1 nM
Kd (HLA-A*02:17; [13]): 83 nM
Kd (HLA-A*68:02; [12]): 2.85 nM
Kd (HLA-A*02:01 [2]; [13]): 12.6 nM
Kd (HLA-A*02:06; [12]): 1.02 nM

Kd (HLA-B*08:01): ≥ 20000 nM
Kd (HLA-A*26:01): ≥ 20000 nM
Kd (HLA-B*40:01): ≥ 20000 nM
Kd (HLA-A*11:01): ≥ 20000 nM
Kd (HLA-B*44:02): ≥ 20000 nM
Kd (HLA-A*01:01 [4]): ≥ 20000 nM
Kd (HLA-B*27:05): ≥ 20000 nM
Kd (HLA-B*46:01): ≥ 20000 nM
Kd (HLA-A*03:01): ≥ 20000 nM
Kd (HLA-A*02:01 [5]; [14]): ≥ 20000 nM
Kd (HLA-B*58:01): ≥ 20000 nM
Kd (HLA-B*15:01; source organism: Escherichia coli): 133 nM
Kd (HLA-A*31:01): 622 nM
Kd (HLA-A*69:01; [14]): ≥ 20000 nM
Kd (HLA-B*07:02 [6]): ≥ 20000 nM
Sequence: AQRPAKYSY

Sequence: QVMLLVLCAV
Kd (HLA-A*02:03; [12]): 604 nM
Kd (HLA-A*02:17; [9]): ≥ 35100 nM
Kd (HLA-A*02:01 [2]; [9]): 146 nM
Kd (HLA-A*02:06; [12]): 11.8 nM

Sequence: FLDLPLPWAA
Kd (HLA-A*02:17; [15]): 499 nM
Kd (HLA-A*02:01 [2]; [15]): 4.19 nM
Kd (HLA-A*02:06; [15]): 59.3 nM

Sequence: ILLKATLLAV
Kd (HLA-A*02:03; [16]): 2.21 nM
Kd (HLA-A*02:17; [17]): 318 nM
Kd (HLA-A*02:01 [2]; [17]): 2.24 nM
Kd (HLA-A*02:06; [16]): 18.1 nM

Sequence: YLKEACNHA
Kd (HLA-A*02:12): 52 nM
Kd (HLA-A*02:01 [5]; [18]): 243 nM
Kd (HLA-B*15:01; [18]): 652 nM
Kd (HLA-A*69:01; [18]): 473 nM

Sequence: HMIAGVFFT
Kd (HLA-A*02:17; [13]): 1400 nM
Kd (HLA-A*02:01 [2]; [13]): 9.01 nM
